The source of these data is publication PMC2112603 (The Journal of Cell Biology, 1983).

The target of this test is F-actin from chicken breast muscle (chicken, UniProt P68139 1-377). Briefly: co-sedimentation.

B1: 110-kdalton protein-calmodulin complex (complex)
chain 1: MEATTSLLDAAAVGDLVMLDPLSEESLLRTLQERFSRGEIYTYIGEVVISVNPYKPLPIYTPEKVEEYHNCNFFAVKPHIYAIADDAYRSLRDRDRDQCILITGESGAGKTEASKLVMSYVAAVSSKGEEVDKVKEQLLQSNPVLEAFGNAKTIRNDNSSRFGKYMDVEFDFKGDPLGGVISNYLLEKSRIVRHVKGERNFHIFYQLLAGGSAQLLQQLKLRPDCSHYGYLNHEKSVLPGMDDAANFRAMQDAMAIIGFAPAEVTALLEVTAVVLKLGNVKLSSCFQASGMEASSITEPRELQEISQLIGLDPSTLEQALCSRTVKVRDESVLTALSVSQGYYGRDALAKNIYSRLFDWLVNRINTSIQVKPGKQRKVMGVLDIYGFEIFQDNGFEQFIINYCNEKLQQIFILMTLKEEQEEYVREGIQWTPVEFFDNSIICDLIENSKVGILAMLDEECLRPGTVNEDTFITKLNQIFASHKRYESKETLNAKHVTDVSLPLRCFRIHHYAGKVTYNVTGFIEKNNDLLFRDLSQAMWAARHTLLRSLFPEGDPQRPSLKLPPTTGSQFKASVATLMKNLYSKNPNYIRCIKPNDTKTAMLFTPDLVLAQVRYLGLMENVRVRRAGYAFRQLYQPFLERYKMLSRKTWPRWTGGDREGAEVLLAELKFPPEELAYGHTKIFIRSPRTLFDLEKRRQQRVAELATLIQKMFRGWCCRKRYQLMRKSQILISAWFRGHMQRNRYKQMKRSVLLLQAYARGWKTRRMYRRYFRSDACTRLSNFIYRRMVQKYLMGLQKNLPPMAVLDRTWPPAPYKFLSDANQELKSIFYRWKCKKYREQLTPQQRAMLQAKLCASELFKDKKALYAQSLQQPFRGEYLGLTQNRKYQKLQAVAKDKLVMAEAVQKVNRANGKTVPRLLLLTTEHLVLADPKAAQPKMVLSLCDIQGASVSRFSDGLLALHLKETSTAGGKGDLLLVSPHLIELVTRLHQTLMDATAQALPLSIADQFSTRFPKGDVAVTVVESAKGGGDVPVCKKRGSHKMEILVH
chain 2: […]
On to B1, for which the binding result is “binds”.
